# Results reported in US20110086806A1 (published 2011).
# Positions count from the first letter of the chain named.
# T1: recombinant human IL-23R/Fc chimera (R&D Systems) (human, UniProt Q5VWK5 24-355)
# T1 construct: Bought; also called rhIL23RFc
# T1 sequence (looked up): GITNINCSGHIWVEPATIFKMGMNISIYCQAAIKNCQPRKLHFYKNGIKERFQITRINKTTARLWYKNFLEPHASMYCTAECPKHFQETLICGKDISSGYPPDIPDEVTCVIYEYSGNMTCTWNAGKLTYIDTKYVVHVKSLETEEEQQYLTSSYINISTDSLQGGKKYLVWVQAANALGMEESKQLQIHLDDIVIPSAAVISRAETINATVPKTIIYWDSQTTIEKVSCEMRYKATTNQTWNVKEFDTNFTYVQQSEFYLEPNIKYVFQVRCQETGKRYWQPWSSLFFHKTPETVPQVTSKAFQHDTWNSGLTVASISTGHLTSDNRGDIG
# B1: 101-51-1A3 ATRIMER complex (designed binder)
# chain: EPPTQKPKKIVNAKKDVVNTKMFEELKSRLDTLAQEVALLKEQQALQTVCLKGTKVHMKCFLAFTQTKTFHEASEDCISRGGTLSTPQTGSENDALYEYLRQSVGNEAEIWLGLNGSALTNTWVDMTGARIAYKNWEHQPVYQPGGGWGVFGENCAVLSGAANGKWFDKRCRDQLPYICQFGIV
# modifications: Forms a homotrimer through the tetranectin coiled coil; one protomer is given.
# notes: not shown: C-terminal tag: His/Myc (pANA4) or HA-StrepII (pANA10)
# B2: 101-51-1A5 ATRIMER complex (designed binder)
# chain: B1 chain with H138N, Q139G, P140H, V141E, Y142P, G145R, W148F, V150Y
# modifications: Forms a homotrimer through the tetranectin coiled coil; one protomer is given.
# notes: as for B1
# B3: 101-51-1A6 ATRIMER complex (designed binder)
# chain: B1 chain with H138N, Q139N, P140L, V141S, Y142A, G145R, W148F, V150Y
# modifications: Forms a homotrimer through the tetranectin coiled coil; one protomer is given.
# notes: as for B1
# B4: 101-51-1A8 ATRIMER complex (designed binder)
# chain: B1 chain with H138R, Q139T, V141P, Y142W, G145E, W148F, V150Y
# modifications: Forms a homotrimer through the tetranectin coiled coil; one protomer is given.
# notes: as for B1
# B5: 101-51-1A9 ATRIMER complex (designed binder)
# chain: B1 chain with H138P, Q139A, P140R, V141Q, Y142P, W148F, V150Y
# B6: 101-51-1A10 ATRIMER complex (designed binder)
# chain: B1 chain with Q139P, P140L, V141P, Y142P, G145S, W148F, V150Y
# modifications: Forms a homotrimer through the tetranectin coiled coil; one protomer is given.
# notes: as for B1
# B7: 101-54-4A12 ATRIMER complex (designed binder)
# chain: EPPTQKPKKIVNAKKDVVNTKMFEELKSRLDTLAQEVALLKEQQALQTVCLKGTKVHMKCFLAFTQTKTFHEASEDCISRGGTLSTPQTGSENDALYEYLRQSVGNEAEIWLGLNGSRRSGVWVDMTGARIAYKNWEPPGPAHPQGGFGVFGENCAVLSGAANGKWFDKRCRDQLPYICQFGIV
# notes: also called 101-54-4Al2
# B8: 101-54-4B3 ATRIMER complex (designed binder)
# chain: B1 chain with H138L, Q139P, V141P, Y142G, Q143H, G145Q, W148F
# B9: 101-54-4B10 ATRIMER complex (designed binder)
# chain: B1 chain with H138R, Q139P, V141L, W148F, V150Y
# B10: 101-80-5E8 ATRIMER complex (designed binder)
# chain: B1 chain with H138P, Q139P, P140E, V141P, Y142L, Q143H, G145M, W148F
# B11: 105-08-2C8 ATRIMER complex (designed binder)
# chain: B1 chain with A118W, N121D, H138T, Q139E, P140I, V141T, Y142A, G145D, V150Y
# B12: 105-08-2C9 ATRIMER complex (designed binder)
# chain: B1 chain with A118T, H138T, Q139E, P140I, V141T, Y142A, G145D, V150Y
# B13: 105-08-2C11 ATRIMER complex (designed binder)
# chain: B1 chain with A118L, L119K, N121Q, H138T, Q139E, P140I, V141T, Y142A, G145D, V150Y
# B14: 105-08-2C12 ATRIMER complex (designed binder, not shown: small tags and cut ends)
# chain: EPPTQKPKKIVNAKKDVVNTKMFEELKSRLDTLAQEVALLKEQQALQTVCLKGTKVHMKCFLAFTQTKTFHEASEDCISRGGTLSTPQTGSENDALYEYLRQSVGNEAEIWLGLNGSQRTDTWVDMTGARIAYKNWETEITAQPDGGFGYFGENCAVLSGAANGKWFDKRCRDQLPYICQFGIV
# B15: 105-08-2D2 ATRIMER complex (designed binder)
# chain: B14 chain with Q118A, D121G
# B16: 105-08-2E12 ATRIMER complex (designed binder)
# chain: B14 chain with Q118G, R119L, F148W
# B17: 105-08-2G1 ATRIMER complex (designed binder)
# chain: B14 chain with Q118P, R119K, D121H
# B18: 105-08-2G2 ATRIMER complex (designed binder)
# chain: B14 chain with Q118A, R119I, F148W
# B19: 105-08-2G4 ATRIMER complex (designed binder)
# chain: B14 chain with Q118P, D121G
# B20: 105-08-2G6 ATRIMER complex (designed binder)
# chain: B14 chain with Q118L, R119L, F148W
# B21: 105-08-2H2 ATRIMER complex (designed binder)
# chain: B14 chain with Q118P, R119T, F148W
# B22: 105-08-2H3 ATRIMER complex (designed binder)
# chain: B14 chain with Q118S, R119L, D121N, F148W
# modifications: ATRIMER complex: homotrimer of three copies of this chain, joined by the tetranectin coiled coil
# notes: not shown: C-terminal tag: Myc/His (pANA4) or HA-StrepII (pANA10)
# B23: 105-08-2H4 ATRIMER complex (designed binder)
# chain: B14 chain with Q118V
# B24: 105-08-2H6 ATRIMER complex (designed binder)
# chain: B14 chain with Q118P, R119V, D121G
# B25: 105-08-2H10 ATRIMER complex (designed binder)
# chain: B14 chain with Q118N, R119H
# B26: 105-08-2H11 ATRIMER complex (designed binder)
# chain: B14 chain with Q118P, F148W
# notes: as for B1
# B27: 105-08-2H12 ATRIMER complex (designed binder, not shown: small tags and cut ends)
# chain: B14 chain with Q118P, D121E
# B28: 105-20-1A6 ATRIMER complex (designed binder)
# chain: B14 chain with Q118A, R119K, D121G, F148W
# B29: 105-20-1B4 ATRIMER complex (designed binder)
# chain: B14 chain with Q118S, D121N, F148W
# modifications: ATRIMER complex: homotrimer of three copies of this chain, joined by the tetranectin coiled coil
# notes: as for B22
# B30: 105-20-2C4a ATRIMER complex (designed binder)
# chain: B14 chain with Q118A, R119K, F148W
# modifications: ATRIMER complex: homotrimer of three copies of this chain, joined by the tetranectin coiled coil
# notes: as for B22
# B31: 105-20-2C4b ATRIMER complex (designed binder)
# chain: B14 chain with Q118V, R119K, F148W
# B32: 105-20-2C7 ATRIMER complex (designed binder, not shown: small tags and cut ends)
# chain: B14 chain with Q118V, R119T
# B33: 105-20-2C11 ATRIMER complex (designed binder)
# chain: B14 chain with Q118V, F148W
# notes: as for B1
# B34: 105-20-2F10 ATRIMER complex (designed binder)
# chain: B14 chain with Q118A
# notes: as for B1
# B35: 105-20-2G5 ATRIMER complex (designed binder)
# chain: B14 chain with Q118R, F148W
# B36: 105-59-3A5 ATRIMER complex (designed binder)
# chain: B14 chain with Q118L, R119L, D121N, Y150V
# modifications: Homotrimer of three identical chains (ATRIMER complex); one chain is given.
# notes: as for B1
# B37: 105-59-3B5 ATRIMER complex (designed binder)
# chain: B14 chain with Q118P, R119I, Y150V
# B38: 105-61-4G3 ATRIMER complex (designed binder)
# chain: B14 chain with Q118L, Y150V
# notes: also called 61-p4G3
# B39: 105-61-4G5 ATRIMER complex (designed binder)
# chain: B14 chain with Q118P, R119L, D121N, Y150V
# B40: 105-78-2D1 ATRIMER complex (designed binder)
# chain: B14 chain with Q118L, D121H, Y150V
# B41: 105-78-2E6 ATRIMER complex (designed binder)
# chain: B14 chain with Q118L, D121N, Y150V
# Target: T1, recombinant human IL-23R/Fc chimera …
# Test: competition ELISA vs IL-23
# Description: Assays were performed generally as follows. Individual wells in Immulon HB2 plates were incubated overnight at 4° C. with 100 μL PBS containing 100 ng of an anti-human IgG Fc (R&D MAB 110 clone 97924). Plates were washed five times with PBS/0.05% Tween 20, and wells were incubated for 1.5 h at RT with 100 μL each of PBS containing 50 ng of recombinant human IL-23R/Fc. […] Competitor was included at a final concentration of 1 μg/mL. After incubation, plates were washed as described and wells were incubated for 40 min at RT with 100 μL each of PBS containing a 1:5000 dilution of streptavidin-HRP conjugate (Pierce catalog no. 21130). After washing, wells were incubated with 100 μL each of TMB (BioFX Lab catalog no. TMBH-1000-0) for up to 30 min at RT. Reactions were stopped with an equal volume of 0.2 M sulfuric acid.
row,Binder,Ratio IC50 to 056-53.H4E IC50
1,B1,1.6
2,B2,1
3,B3,2.6
4,B4,3.7
5,B5,2.2
6,B6,8.7
7,B7,1.1
8,B8,1
9,B9,1.4
10,B10,0.6
11,B11,8.4
12,B12,5.3
13,B13,9.1
14,B14,3.3
15,B15,4.1
16,B16,9.1
17,B17,2.2
18,B18,3.8
19,B19,2.5
20,B20,5.2
21,B21,4

row,Binder,Ratio IC50 to 056-53.H4E IC50
1,B22,2.9
2,B23,5
3,B24,2
4,B25,6.5
5,B26,4.3
6,B27,3.3
7,B28,6.6
8,B29,3
9,B30,2.9
10,B31,4.2
11,B32,3.5
12,B33,4.8
13,B34,4.2
14,B35,5.3
15,B36,1.2
16,B37,0.8
17,B38,0.8
18,B39,1
19,B40,1.3
20,B41,1

# Target: T1, recombinant human IL-23R/Fc chimera …
# Test: SPR
# Description: A Biacore 3000 biosensor (GE Healthcare) was used to evaluate the interaction of human IL-23R and receptor binders. Immobilization of an anti-human IgG Fc antibody (GE Healthcare) to the CM5 chip (GE Healthcare) was performed using standard amine coupling chemistry, and this modified surface was used to capture a recombinant human IL-23R/Fc fusion protein (R&D Systems). A low-density receptor surface, less than 200 RU, was used for all of the analyses. ATRIMER™ polypeptide complex dilutions (1-500 nM) were injected over the IL-23R surface at 30 μl/min and kinetic constants were derived from the sensorgram data using the Biaevaluation software (version 3.1, GE Healthcare). Data collection was 3 minutes for the association and 5 minutes for dissociation. The anti-human IgG surface was regenerated with a 30s pulse of 3M magnesium chloride. All sensorgrams were double-referenced against an activated and blocked flow-cell as well as buffer injections.
Binder,Ka [M⁻¹],Kd [nM],koff [s⁻¹],kon [M⁻¹ s⁻¹]
B1,1.77e+09,0.565,0.000262,463000
B2,1.71e+09,0.584,0.000289,495000
B3,1.34e+09,0.746,0.000415,557000
B4,6.62e+08,1.51,0.000396,262000
B5,1.05e+09,0.955,0.000329,345000
B6,4.85e+08,2.06,0.000345,167000
B7,2.16e+09,0.463,0.000573,1.24e+06
B8,3.12e+09,0.321,0.000364,1.13e+06
B9,1.11e+09,0.897,0.000429,479000
B10,2.89e+09,0.346,0.000391,1.13e+06
